The RNAGym collection of RNA variant scans (doi:10.1073/pnas.2313332121)

B1: TPR t1 (parent)
chain: GACCAAUCUGCCCUCAGAGCUCGAGAACAUCUUCGGAUGCAGAGGAGGCAGGCUUCGGUGGCGCGAUAGCGCCAACGUCCUCAACCUCCAAUGCAUCCCACCACAUGAUGAUGCCUGAAGAGCCUUGGUUUUUUG

Variants of: B1
Assay: polymerase ribozyme fitness, log enrichment relative to wild type (log ratio); higher = more active; in vitro selection for triplet polymerase activity
Method in brief: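 To select mutant libraries of each subunit of a heterodimeric triplet polymerase ribozyme, built by PCR and transcribed, each was annealed with a biotinylated primer, partner subunit and triplets, then incubated frozen at −7 °C. Extended constructs were gel-excised, captured on streptavidin beads and amplified by RT-PCR, in one round carried out in triplicate. Illumina sequencing of input and output libraries kept genotypes with ≥10 input reads and ≥1 read per output. Fitness is the base-2 logarithm of genotype enrichment relative to wild-type enrichment, from inverse-variance-weighted replicate averages.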

Row | Variant | polymerase ribozyme fitness (log ratio)
1 | C4A A6C A46C C49A C72G A84C A119U C123A U126G | -2.77
2 | C4G G57C C64U A83G C85U | -3.12
3 | C4G C12A G45A G71U A100U U106A | -2.68
4 | C3U U9G | 0.724
5 | C3U U130C | 0.391
6 | C4A A43G U130C | -2.6
7 | C3U U9A A37U G113A | -0.314
8 | C3U G39A C40U G60C C94A | -2.98
9 | C4G C53A C56U C99U U130G | -5.15
10 | C3U G36C G58C U112G | -0.836
11 | C4G C20U C94U A111U | -5.59
12 | C4G G63U C123A | -1.09
13 | C3U G69C U87G C124A | 0.486
14 | C3U C40G G47A C62U A84G | -3.81
15 | C4A G60U G127A | -2.51
16 | C3U C12A G69U G117A | -2.56
17 | C3U C104U | -0.0507
18 | C3U C104A | -2.21
19 | C3U G44C A46U G110A | -2.98
20 | C3U C12A U87C C124U | -0.256
21 | C3U G107A C124G G128A U133G | -4.53
22 | C4G U9G G10C | -0.357
23 | C3U C40U C62U A75U G93C U96G | -3.29
24 | C3U C13A G61A C98U | -3.6

Row | Variant | polymerase ribozyme fitness (log ratio)
25 | C3U G63C G110A | -2.26
26 | C3U U30G C123A C124U | -5.14
27 | C4A A24G | -4.5
28 | C4G A27U G36C C49G C79U C123G | -5.37
29 | C4A G69U G110A U112A G117A | -3.21
30 | C3U U9A C123A | 1.32
31 | C4A U7G A91U | -4.91
32 | C4G A29G U54C | -2.97
33 | C3U C123U | 0.881
34 | C4G C8G A37U G45A U131G | -2.92
35 | C3U G42U C56G | -2.49
36 | C3U C70U | -0.813
37 | C3U C70G | -2.84
38 | C4G G52A C72U A91U A119U | -4.02
39 | C4G G47A | -2.34
40 | C3U C86G | -2.21
41 | C4G A5U C76U | -2.75
42 | C3U G60A U92A | -3.06
43 | C4A G42A | -2.74
44 | C3U U7G A29G C101U U106C | -4.76
45 | C4A U78A C124G | 1.08
46 | C3U G44U C82A | -1.68
47 | C4G C104U | -0.878
48 | C4G C13A A24C G63A G71C G113U G128C | -6.72

Row | Variant | polymerase ribozyme fitness (log ratio)
49 | C3U C94G C114A U125A | -4.28
50 | C3U U14A A111U G120U | -5.57
51 | C3U G61C | -2.38
52 | C3U G61A | -0.131
53 | C4G A6U C72G A84C C115A | -5.17
54 | C3U C12U G63A C89G | -3.24
55 | C3U C22A G36U G71C A84U C123A | -5.28
56 | C4G G36U A90C C124U | -3.18
57 | C3U G52A | -0.0464
58 | C3U C28A C72G U112A | -3.66
59 | C3U G48A C97A | -5.8
60 | C4A G36C C104U A119G A121U G128U U129A | 0.665
61 | C3U G17U G63U C73U | -4.23
62 | C4G U9G U116C G128U U131C | -0.342
63 | C3U C13U G63A | -1.19
64 | C4A C72G | -1.81
65 | C4G C11A A16G A37U G69A G77C G113U C124U | -4.9
66 | C4A U14G C49A C73G C86U | -4.9
67 | C3U C53U G117U A118G | -0.935
68 | C3U C56U G77C | -1.42
69 | C4A C12G G117A G128C | -1.61
70 | C4A G52C C114U | -6.04
71 | C3U G23A | -5.54
72 | C3U G39A G69A A105C G120U G128C | -6.86

Row | Variant | polymerase ribozyme fitness (log ratio)
73 | C3U C56G C79A C124G | -0.114
74 | C4A G48C C62A | -3.18
75 | C3U C20G C53A C97U U109A | -3.06
76 | C4G U7C G69U | -0.0887
77 | C3U G45U | -1.13
78 | C3U C40A C56U G120A | -0.0248
79 | C3U C13A | -1.28
80 | C4A A90U | -2.78
81 | C3U G63A C76U G110A C124U | -5.42
82 | C4A G71A A100U C123U | -2.04
83 | C4A G63U A119G | -0.807
84 | C4A U59C A90C | -3.84
85 | C4G C8G U81A A111C | -2.27
86 | C4A G10U A84G | -2.55
87 | C3U G117A U126A | -5.16
88 | C4A C56G A84G C89U C115A | -4.85
89 | C3U C31G G120C | -6.61
90 | C4A U32C G69U G113A | -2.74
91 | C4A G71A A84C G117U | -6.14
92 | C4G G10U C20G G69A C114U | -6.96
93 | C4G C11A G71A C89U A111U U112A C123A G127C | -2.11
94 | C3U U112A G120U U125G | -2.25
95 | C3U C56U | -0.891
96 | C3U C28U | -2.28

Row | Variant | polymerase ribozyme fitness (log ratio)
97 | C4A A16C C72A C101A C124U U130A | -4.51
98 | C4A U7G G35U G63C G65U C98U G117U | -6
99 | C4G C13A G60A A66G C85A A121C | -2.37
100 | C3U C15U G63A C101A | -3.66
101 | C3U U54G A75G U92C | -2.3
102 | C4A C12A C70U C86G G120U G128C | -2.75
103 | C3U C40U | -1.92
104 | C3U G120U | -0.507
105 | C4G C8G G44A U131G | -3.14
106 | C4A G52A C73A | -2.51
107 | C4A A74G | -1.14
108 | C4A A74U | -1.77
109 | C3U C53U G57C U59A C88G | -2.35
110 | C4A C102U C123A | -3.39
111 | C3U U54C G61A A90C | -0.844
112 | C3U C12U A18U U87A C88U | -2.52
113 | C3U U92A | -2.91
114 | C3U G60A | -0.489
115 | C3U G60C | -0.334
116 | C4A A18C A43U C72A | -3.77
117 | C3U U7A A37C G71C | -0.976
118 | C4G C72A C85G C104U | -2.16
119 | C4A C8A U9C C82U C114U | -2.35
120 | C4G A50U | -3.4

Row | Variant | polymerase ribozyme fitness (log ratio)
121 | C3U C53G C89G | -1.41
122 | C3U C82A | -0.533
123 | C4A U14A | -5.35
124 | C3U C13U C104A | -1.31
125 | C4G A26U A75U | -4.4
126 | C3U C86U C101G | -1.68
127 | C4G G36U | -2.8
128 | C3U G93U | -1.95
129 | C4A C8G A18C G23C U112G U116A | -5.14
130 | C3U G42C A91C | -2.67
131 | C3U G17C C22A A29G G45A G69U C89U | -3.84
132 | C4A A50G C70U A84C C115A | -2.59
133 | C3U G10A | 0.634
134 | C4A A6C C53A C82A G117C | -7.24
135 | C4G C73U U92C | -2.66
136 | C4G C80A | -3.83
137 | C4A G63A A83U A118G | -3.12
138 | C4G C13G C49A G60A | -4.79
139 | C4G C8U C15A G44U G61A | -4.85
140 | C3U G42U | -1.55
141 | C3U G57C C62U C97U A108G C123U C124G | -1.18
142 | C4G A43U A46G C62U G63A U78C C114U G117U | -5.92
143 | C4A C13U A24C C40G A111G | -5.59
144 | C4G G77A C86U C97U | -3.31

Row | Variant | polymerase ribozyme fitness (log ratio)
145 | C4G C62A C99A G113U | -6.39
146 | C4A C72A G113A | -3.57
147 | C3U G17U C72U | -2.73
148 | C3U G45A G71A C79U | -1.81
149 | C3U C12A C13A C49U C72G C99U U116C | -6.31
150 | C3U C12U | -1.59
151 | C3U C13U C15U G48U G113A | -2.97
152 | C4G C8G | -0.396
153 | C4A C40U C53U G57U A83C G113U | -5.8
154 | C4G A46U C53U C70A | -2.97
155 | C4A G135U | -2.46
156 | C3U G45A G61U A100U C124U | 0.286
157 | C4A A18C G42U C86G C114G | -3.47
158 | C4G C13U C31G C34G G63A C79U G113U | -7.83
159 | C4G A6C C8G G48U C72G C76G A95U C124U | -4.99
160 | C3U U55G | -0.611
161 | C4G A41U | -2.07
162 | C3U U9C C88G U116C | -0.482
163 | C3U C13U C70U G128U | -1.99
164 | C3U C12U C72U C85A | -1.01
165 | C3U C85U | -1.43
166 | C4A C8A G36A C72G C99G C104A C124U | -6.92
167 | C4G A5U C8U C101G C104U | -3.99
